The results in this text go back to paper doi:10.1101/2022.11.09.515782.

The assay has as its target glycophorin A TMD, BLaTM chimera. Nature of the assay: split reporter.

For “glycophorin A TMD, BLaTM chimera (domain or fragment)”, the ampicillin LD50 was determined as 100 µg/mL.
